Results from patent US20180339059A1 (DINGFU BIOTARGET, published 2018).
Changes are numbered by the printed parent chain. Where two headings read alike, the source gives them in different places.

B1: O3 mAb (antibody, IgG4, V domains shown)
VH: QVQLQQWGAGLLKPSETLSLTCGFNGEYFTDYFWTWVRQPPGEALEWLALIYWDDDERYSPSLKNRLIITKDISKNQVVLTMTHMEPADTGTYYCARWGGSLMNAFDVWGPGTMVTVSS
VL: QSALIQPASVSGSPGQSITISCTGTSSDVGGYNYVSWYQRHPGKAPRLMIYDVTKRPSGVSNRFSGSKSGNTASLTISGLQAEDEADYYCSSYTSSSIAVFGGGTQLTVL
notes: IgG4, lambda; expressed in HEK293; also called 03 mAb; not shown: human immunoglobulin gamma4 (IgG4) constant region, P01861; human immunoglobulin lambda light chain constant region, A0M8Q6
B2: O19 mAb (antibody, IgG4, V domains shown)
VH: QVQLVESEGGLVQPGGSLRLSCAASRFTFSNYWMSWVRQAPGKGLEWVANIKQDGSEKYYMDSVKGRFTISRDNAKNSLFLQMNTLRAEDTAMYYCTRVSFGVPTYDDFWRSYATPAWYFDFWGRGTLVTVSS
VL: QSALIQPASVSGSPGQSITISCTGISSDDGYYKYVSWYQQYPGKAPKLMIYDVSKRPSGISFRFSGSKSGNTASLTISGLQAEDEADYYCSSYTSNMTPYVFGTGTKVTVL
notes: IgG4, lambda; expressed in HEK293; not shown: human immunoglobulin gamma4 (IgG4) constant region, P01861; human immunoglobulin lambda light chain constant region, A0M8Q6
B3: O21 scFv (scFv)
scFv: QVQLQQSGPGLVKPSQTLSLTCAISGDSVSSNSVSWDWIRQSPSRGLEWLGRTYYRSKWYNEYAVSVESRITINPDTSKNQFSLQLNSVTPEDTAIYFCVRNNYFFDLWGRGTLVTVSSGGGGSGGGGSGGGGSEIVLTQSPATLSLSPGERATLSCRASQSVSSYLAWYQQKPGQAPRLLIYDASDRATGIPARFSGSGSGTDFTLTISSLEPEDFAVYYCQLRSNWPPGYTFGQGTKVEIK
notes: Purified as scFv fused with human IgG1-Fc; also called anti-OX40 21# scFv; not shown: human IgG1-Fc (hFc) domain, residues 104-330 of P01857
B4: O3 scFv (scFv)
scFv: QVQLQQWGAGLLKPSETLSLTCGFNGEYFTDYFWTWVRQPPGEALEWLALIYWDDDERYSPSLKNRLIITKDISKNQVVLTMTHMEPADTGTYYCARWGGSLMNAFDVWGPGTMVTVSSGGGGSGGGGSGGGGSQSALIQPASVSGSPGQSITISCTGTSSDVGGYNYVSWYQRHPGKAPRLMIYDVTKRPSGVSNRFSGSKSGNTASLTISGLQAEDEADYYCSSYTSSSIAVFGGGTQLTVL
notes: Purified as scFv fused with human IgG1-Fc, expressed in HEK293; also called anti-hOX40 scFv O3; not shown: human IgG1-Fc (hFc) domain, residues 104-330 of P01857
B5: anti-OX40 21#H96 mAb (antibody, IgG4, V domains shown)
VH: QVQLQQSGPGLVKPSQTLSLTCAISGDSVSSNSVSWDWIRQSPSRGLEWLGRTYYRSKWYNEYAVSVESRITINPDTSKNQFSLQLNSVTPEDTAIYFCVRNDYFFDLWGRGTLVTVSS
VL: EIVLTQSPATLSLSPGERATLSCRASQSVSSYLAWYQQKPGQAPRLLIYDASDRATGIPARFSGSGSGTDFTLTISSLEPEDFAVYYCQLRSNWPPGYTFGQGTKVEIK
notes: Formatted as IgG according to Embodiment 3 (IgG4); also called H96 heavy chain mutant; not shown: human immunoglobulin gamma4 (IgG4) constant region, P01861; human immunoglobulin kappa light chain constant region, P01834
B6: O21 mAb (antibody, IgG4, V domains shown)
VH: B5 VH with D103N
VL: B5 VL
notes: also called 021 mAb; anti-OX40 21# mAb; not shown: human immunoglobulin gamma4 (IgG4) constant region, P01861; human immunoglobulin kappa light chain constant region, P01834
B7: anti-OX40 21#VHnew-L80 mAb (antibody, IgG4, V domains shown)
VH: B5 VH with S33G, S69N
VL: B5 VL with S30G, D53N, L90Q
notes: Formatted as IgG according to Embodiment 3 (IgG4); not shown: human immunoglobulin gamma4 (IgG4) constant region, P01861; human immunoglobulin kappa light chain constant region, P01834
B8: anti-OX40 21#H28H33 mAb (antibody, IgG4, V domains shown)
VH: B5 VH with S28N, S33G, D103N
VL: B5 VL
notes: Formatted as IgG 'according to the method in Embodiment 3' (IgG4); not shown: human immunoglobulin gamma4 (IgG4) constant region, P01861; human immunoglobulin kappa light chain constant region, P01834
B9: anti-OX40 21#H65 mAb (antibody, IgG4, V domains shown)
VH: B5 VH with S69N, D103N
VL: B5 VL
notes: as for B7
B10: anti-OX40 21#H96-L80 mAb (antibody, V domains shown)
VH: B5 VH
VL: B5 VL with S30G, D53N, L90Q
notes: Formatted as IgG according to Embodiment 3 (IgG4); also called H96-L80 IgG4; not shown: human immunoglobulin gamma4 (IgG4) constant region, P01861; human immunoglobulin kappa light chain constant region, P01834

Columns and labels:
hOX40-muFc [1] = biological target: T1, hOX40-muFc (human; mouse, UniProt P43489 29-216); assay: SPR, BIAcore X100; antibody captured by anti-human Fc on CM5 chip, OX40-muFc as analyte, 1:1 model
T1 construct: range 1-216; Expressed in HEK293, purified on Protein A; also called recombinant human OX40; not shown: mouse IgG1-Fc (muFc) domain, residue 98 to residue 324 of P01868
T1 sequence (looked up): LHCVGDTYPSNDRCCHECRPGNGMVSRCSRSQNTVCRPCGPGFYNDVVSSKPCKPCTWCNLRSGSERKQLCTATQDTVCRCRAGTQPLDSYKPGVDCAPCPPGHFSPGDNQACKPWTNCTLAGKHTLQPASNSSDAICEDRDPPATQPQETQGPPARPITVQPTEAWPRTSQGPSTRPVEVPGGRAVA
Method: (§1) The binding kinetics of anti-hOX40 antibody to recombinant human OX40 was measured by surface plasmon resonance (SRP) method using a BIAcore X100 instrument. Anti-human Fc antibody (no cross-identification against the mouse Fc) was conjugated on CM5 chip, the test antibody was diluted to 5 nM with running buffer and captured as a ligand by the anti-human Fc antibody on the CM5 chip. […] The injection time is 180 s, the dissociation time is 1800 s and the regeneration time is 60 s. The running buffer is HBS-EP+, and the regeneration buffer is 10 mM glycine-HCl (pH 2.0). The association rate (kₒₙ) and dissociation rate (koff) were calculated using a simple one-to-one Languir binding model (BIAcore Evaluation Software version 3.2). The equilibrium dissociation constant (kD) is calculated as the ratio koff/kₒₙ. It can be seen from Table 3 that the affinity of the affinity-matured anti-OX40 21 # H96-L80 mAb is increased approximately two times.

hOX40-muFc [2] = biological target: T1, hOX40-muFc; assay: ELISA, hOX40-muFc coated at 2 µg/ml, goat anti-human IgG-HRP; column C of the drawn 4-P fit table y=(A-D)/(1+(x/C)^B)+D; the axis prints no unit, ng/ml is from paragraph 210
Method: (§2) hOX40-muFc was diluted to 2 μg/ml with coating buffer (50 mM Na₂CO₃, NaHCO₃ pH 9.6), 100 μL/well, 4° C. overnight. After washing, blocking was performed using 3% BSA-PBS for 1 h at 37° C. The anti-hOX40 antibodies were diluted respectively from 2000 ng/ml and was diluted 2-fold in a total of 11 concentrations, with the diluent (1% BSA-PBS) as a control, and incubated at 37° C. for 2 h. Goat anti-human IgG-HRP conjugated was added and incubated for 1 h at 37° C. Soluble one-component TMB substrate developer solution is added, and the developing was performed in dark at room temperature for 5-10 min. 2N H₂SO₄ 50 μL/well was added to terminate the color development reaction. The OD of the obtained solution was determined at 450 nm-650 nm on MD SpectraMax Plus 384 microplate reader and SoftMaxPro v5.4 was used for processing data, making graphs and analysis. […] It can be seen from FIG. 5 and FIG. 6 that all the above variants of anti-OX40 21 # mAb can bind to OX40 and the affinity of the in vitro affinity-matured anti-OX40 21 # VHnew-L80 mAb and anti-OX40 21#H96-L80 mAb increased approximately two times compared to anti-OX40 21# mAb.

[3] = biological target: T2, hCD27-EGFP on HEK293 cells (human, UniProt P26842 20-260); assay: flow cytometry on HEK293 cells expressing hCD27-EGFP, anti-hIg-PE
T2 construct: pcDNA4-hCD27-EGFP transfected into HEK293; not shown: EGFP, C5MKY7
T2 sequence (looked up): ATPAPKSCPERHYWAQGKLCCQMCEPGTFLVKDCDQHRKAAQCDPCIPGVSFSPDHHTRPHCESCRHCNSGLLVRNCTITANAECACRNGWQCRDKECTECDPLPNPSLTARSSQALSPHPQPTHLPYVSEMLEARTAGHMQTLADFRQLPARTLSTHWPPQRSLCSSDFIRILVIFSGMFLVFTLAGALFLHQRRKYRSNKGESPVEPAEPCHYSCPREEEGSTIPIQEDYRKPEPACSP
Method: (§3) HEK293 cells expressing hOX40-EGFP, hCD137-EGFP and hCD27-EGFP obtained in Embodiment 1 were resuspended in 0.5% PBS-BSA Buffer and anti-hOX40 mAb protein was added and the mixture was incubated on ice for 20 min. After washing, secondary antibody anti-hlg-PE (eBioscience) was added, and the mixture was incubated on ice for 20 min. After washing, the cells were resuspended in 500 μl 0.5% PBS-BSA Buffer and detected by flow cytometry.

[4] = biological target: T3, hCD137-EGFP on HEK293 cells (human, UniProt Q07011 24-255); assay: flow cytometry on HEK293 cells expressing hCD137-EGFP, anti-hIg-PE
T3 construct: pcDNA4-hCD137-EGFP transfected into HEK293; not shown: EGFP, C5MKY7
T3 sequence (Q07011 24-255): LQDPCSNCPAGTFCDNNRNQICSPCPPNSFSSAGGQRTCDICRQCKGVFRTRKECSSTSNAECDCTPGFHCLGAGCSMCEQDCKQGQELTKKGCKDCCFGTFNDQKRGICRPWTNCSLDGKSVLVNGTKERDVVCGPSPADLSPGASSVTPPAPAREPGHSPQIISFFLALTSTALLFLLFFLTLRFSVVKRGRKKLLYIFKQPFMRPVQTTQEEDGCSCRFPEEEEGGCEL
Method: as §3

hOX40-muFc [5] = biological target: T1, hOX40-muFc; assay: ELISA, hOX40-muFc coated at 2 µg/ml, goat anti-human IgG-HRP; column C of the drawn 4-P fit table y=(A-D)/(1+(x/C)^B)+D; the axis prints no unit, ng/ml is from paragraph 210; remark: listed apart in the source
Method: as §2

hOX40-muFc [6] = biological target: T1, hOX40-muFc; assay: as above; remark: listed apart in the source
Method: as §2

hOX40-muFc [7] = biological target: T1, hOX40-muFc; assay: ELISA, hOX40-muFc coated at 2 µg/ml, goat anti-human IgG-HRP
Method: as §2

hOX40-muFc [8] = biological target: T1, hOX40-muFc; assay: SPR, BIAcore X100; antibody captured by anti-human Fc on CM5 chip, OX40-muFc as analyte
Method: as §1

Binder	Kd (hOX40-muFc [1]) [nM]	koff (hOX40-muFc [1]) [s⁻¹]	kon (hOX40-muFc [1]) [M⁻¹ s⁻¹]	EC50 (hOX40-muFc [2]) [µg/mL]	EC50 (hOX40-muFc [5]) [µg/mL]	EC50 (hOX40-muFc [6]) [µg/mL]	further results
B1	1.38	0.000391	284000	0.0139	–	–	–
B2	–	–	–	–	–	–	binding result [3]: no binding; binding result [4]: no binding
B3	–	–	–	0.00949	–	–	–
B4	–	–	–	0.309	–	–	–
B5	–	–	–	–	0.046	–	–
B6	14.5	0.000608	41800	0.0139	0.0758	0.0298	binding result [3]: no binding; binding result [4]: no binding
B7	10.3	0.000342	33300	–	–	0.0134	fold increase of affinity compared to anti-OX40 21# mAb (hOX40-muFc [7]): ~2 times
B8	–	–	–	–	0.0432	–	–
B9	–	–	–	–	0.0609	–	–
B10	7.9	0.000237	30000	–	–	0.0154	fold increase of affinity compared to anti-OX40 21# mAb (hOX40-muFc [7]): ~2 times; fold increase of affinity (reference not given; O21 mAb by Table 3) (hOX40-muFc [8]): ~2 times
